Test results reported in IntAct's records for PubMed 29892012.

B1: Exportin-6 (Homo sapiens), Q96QU8 (parent)
chain: MASEEASLRALESLMTEFFHDCTTNERKREIEELLNNFAQQIGAWRFCLYFLSSTRNDYVMMYSLTVFENLINKMWLGVPSQDKMEIRSCLPKLLLAHHKTLPYFIRNKLCKVIVDIGRQDWPMFYHDFFTNILQLIQSPVTTPLGLIMLKTTSEELACPREDLSVARKEELRKLLLDQVQTVLGLLTGILETVWDKHSVTAATPPPSPTSGESGDLLSNLLQSPSSAKLLNQPIPILDVESEYICSLALECLAHLFSWIPLSASITPSLLTTIFHFARFGCDIRARKMASVNGSSQNCVSGQERGRLGVLAMSCINELMSKNCVPMEFEEYLLRMFQQTFYLLQKITKDNNAHTVKSRLEELDESYIEKFTDFLRLFVSVHLRRIESYSQFPVVEFLTLLFKYTFHQPTHEGYFSCLDIWTLFLDYLTSKIKSRLGDKEAVLNRYEDALVLLLTEVLNRIQFRYNQAQLEELDDETLDDDQQTEWQRYLRQSLEVVAKVMELLPTHAFSTLFPVLQDNLEVYLGLQQFIVTSGSGHRLNITAENDCRRLHCSLRDLSSLLQAVGRLAEYFIGDVFAARFNDALTVVERLVKVTLYGSQIKLYNIETAVPSVLKPDLIDVHAQSLAALQAYSHWLAQYCSEVHRQNTQQFVTLISTTMDAITPLISTKVQDKLLLSACHLLVSLATTVRPVFLISIPAVQKVFNRITDASALRLVDKAQVLVCRALSNILLLPWPNLPENEQQWPVRSINHASLISALSRDYRNLKPSAVAPQRKMPLDDTKLIIHQTLSVLEDIVENISGESTKSRQICYQSLQESVQVSLALFPAFIHQSDVTDEMLSFFLTLFRGLRVQMGVPFTEQIIQTFLNMFTREQLAESILHEGSTGCRVVEKFLKILQVVVQEPGQVFKPFLPSIIALCMEQVYPIIAERPSPDVKAELFELLFRTLHHNWRYFFKSTVLASVQRGIAEEQMENEPQFSAIMQAFGQSFLQPDIHLFKQNLFYLETLNTKQKLYHKKIFRTAMLFQFVNVLLQVLVHKSHDLLQEEIGIAIYNMASVDFDGFFAAFLPEFLTSCDGVDANQKSVLGRNFKMDRDLPSFTQNVHRLVNDLRYYRLCNDSLPPGTVKL
B2: Ligand of Numb protein X 2 (Homo sapiens), Q8N448 (parent)
chain: MGTTSDEMVSVEQTSSSSLNPLCFECGQQHWTRENHLYNYQNEVDDDLVCHICLQPLLQPLDTPCGHTFCYKCLRNFLQEKDFCPLDRKRLHFKLCKKSSILVHKLLDKLLVLCPFSSVCKDVMQRCDLEAHLKNRCPGASHRRVALERRKTSRTQAEIENENGPTLLDPAGTLSPEADCLGTGAVPVERHLTSASLSTWSEEPGLDNPAFEESAGADTTQQPLSLPEGEITTIEIHRSNPYIQLGISIVGGNETPLINIVIQEVYRDGVIARDGRLLAGDQILQVNNYNISNVSHNYARAVLSQPCNTLHLTVLRERRFGNRAHNHSDSNSPREEIFQVALHKRDSGEQLGIKLVRRTDEPGVFILDLLEGGLAAQDGRLSSNDRVLAINGHDLKYGTPELAAQIIQASGERVNLTIARPGKPQPGNTIREAGNHSSSSQHHTPPPYYSRPSSHKDLTQCVTCQEKHITVKKEPHESLGMTVAGGRGSKSGELPIFVTSVPPHGCLARDGRIKRGDVLLNINGIDLTNLSHSEAVAMLKASAASPAVALKALEVQIVEEATQNAEEQPSTFSENEYDASWSPSWVMWLGLPSTLHSCHDIVLRRSYLGSWGFSIVGGYEENHTNQPFFIKTIVLGTPAYYDGRLKCGDMIVAVNGLSTVGMSHSALVPMLKEQRNKVTLTVICWPGSLV
partner: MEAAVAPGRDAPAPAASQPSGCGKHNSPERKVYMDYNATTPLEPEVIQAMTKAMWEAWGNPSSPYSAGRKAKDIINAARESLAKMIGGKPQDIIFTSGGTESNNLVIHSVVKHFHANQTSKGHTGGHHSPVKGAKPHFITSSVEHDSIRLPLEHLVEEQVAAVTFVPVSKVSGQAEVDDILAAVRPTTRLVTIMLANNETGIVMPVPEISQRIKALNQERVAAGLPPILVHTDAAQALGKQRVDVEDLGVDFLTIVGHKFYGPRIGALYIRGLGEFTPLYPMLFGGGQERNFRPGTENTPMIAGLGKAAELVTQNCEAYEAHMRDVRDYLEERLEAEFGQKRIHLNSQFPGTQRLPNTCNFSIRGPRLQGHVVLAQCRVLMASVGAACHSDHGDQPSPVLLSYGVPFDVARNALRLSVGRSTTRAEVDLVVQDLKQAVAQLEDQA
B3: Ribosome assembly protein METTL17, mitochondrial (Homo sapiens), Q9H7H0 (parent)
chain: MAAALKCLLTLGRWCPGLGVAPQARALAALVPGVTQVDNKSGFLQKRPHRQHPGILKLPHVRLPQALANGAQLLLLGSAGPTMENQVQTLTSYLWSRHLPVEPEELQRRARHLEKKFLENPDLSQTEEKLRGAVLHALRKTTYHWQELSYTEGLSLVYMAARLDGGFAAVSRAFHEIRARNPAFQPQTLMDFGSGTGSVTWAAHSIWGQSLREYMCVDRSAAMLVLAEKLLKGGSESGEPYIPGVFFRQFLPVSPKVQFDVVVSAFSLSELPSKADRTEVVQTLWRKTGHFLVLVENGTKAGHSLLMDARDLVLKGKEKSPLDPRPGFVFAPCPHELPCPQLTNLACSFSQAYHPIPFSWNKKPKEEKFSMVILARGSPEEAHRWPRITQPVLKRPRHVHCHLCCPDGHMQHAVLTARRHGRDLYRCARVSSWGDLLPVLTPSAFPPSTAQDPSES
B4: Ligand of Numb protein X 2 (Homo sapiens), Q8N448 (parent)
chain: B2 chain
partner: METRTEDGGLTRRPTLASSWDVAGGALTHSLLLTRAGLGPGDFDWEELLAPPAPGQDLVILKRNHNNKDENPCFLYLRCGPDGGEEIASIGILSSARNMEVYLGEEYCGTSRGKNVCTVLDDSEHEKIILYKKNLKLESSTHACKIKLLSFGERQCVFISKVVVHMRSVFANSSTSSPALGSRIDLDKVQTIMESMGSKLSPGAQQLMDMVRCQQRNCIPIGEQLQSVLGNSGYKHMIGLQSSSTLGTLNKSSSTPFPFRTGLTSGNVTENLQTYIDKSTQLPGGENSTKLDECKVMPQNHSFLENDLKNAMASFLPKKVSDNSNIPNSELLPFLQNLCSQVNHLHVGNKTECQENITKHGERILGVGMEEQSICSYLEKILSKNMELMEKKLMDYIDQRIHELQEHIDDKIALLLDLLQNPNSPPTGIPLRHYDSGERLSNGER

Variants of: B1
Settings: with nup62_human NUP62, P37198
Sequence of nup62_human NUP62, P37198 (P37198 whole entry): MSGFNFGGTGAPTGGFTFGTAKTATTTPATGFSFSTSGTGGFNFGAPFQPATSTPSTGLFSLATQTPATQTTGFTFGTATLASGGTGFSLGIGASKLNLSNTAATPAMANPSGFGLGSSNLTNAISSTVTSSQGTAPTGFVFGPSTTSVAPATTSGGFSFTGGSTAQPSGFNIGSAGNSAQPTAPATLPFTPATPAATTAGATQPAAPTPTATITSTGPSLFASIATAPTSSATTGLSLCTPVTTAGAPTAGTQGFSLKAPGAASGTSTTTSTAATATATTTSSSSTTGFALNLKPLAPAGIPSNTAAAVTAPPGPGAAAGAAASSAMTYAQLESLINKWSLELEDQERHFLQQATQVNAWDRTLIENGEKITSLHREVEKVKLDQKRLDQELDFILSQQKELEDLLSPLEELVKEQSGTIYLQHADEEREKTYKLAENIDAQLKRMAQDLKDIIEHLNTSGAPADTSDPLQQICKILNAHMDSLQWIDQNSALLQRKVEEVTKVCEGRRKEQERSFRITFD

Variant	effect of a mutation on the interaction
L512V	with no effect

Variants of: B2
Settings: with scly_human SCLY

Variant	effect of a mutation on the interaction
P669A	with no effect

Variants of: B3
Settings: with sf3b4_human SF3B4, Q15427
Sequence of sf3b4_human SF3B4, Q15427 (Q15427 whole entry): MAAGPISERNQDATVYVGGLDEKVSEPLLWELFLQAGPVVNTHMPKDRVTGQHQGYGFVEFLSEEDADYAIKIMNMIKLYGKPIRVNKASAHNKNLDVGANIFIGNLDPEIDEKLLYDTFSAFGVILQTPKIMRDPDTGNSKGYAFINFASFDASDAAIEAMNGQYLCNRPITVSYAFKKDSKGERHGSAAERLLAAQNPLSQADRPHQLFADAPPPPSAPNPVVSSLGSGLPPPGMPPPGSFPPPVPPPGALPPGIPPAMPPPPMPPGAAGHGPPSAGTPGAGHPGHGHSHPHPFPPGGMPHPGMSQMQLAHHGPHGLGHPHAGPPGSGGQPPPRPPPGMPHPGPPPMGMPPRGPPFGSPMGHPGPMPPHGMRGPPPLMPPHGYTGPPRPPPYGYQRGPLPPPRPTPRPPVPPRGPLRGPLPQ

Variant	effect of a mutation on the interaction
R212H	with no effect

Variants of: B3
Settings: with mdfi_human MDFI

Variant	effect of a mutation on the interaction
R212H	with no effect

Variants of: B4
Settings: with paat_human PAAT

Variant	effect of a mutation on the interaction
P669A	with no effect
